Measured values reported in patent US20150246947A1 (BAXALTA, published 2015).

Legend:
human Protein S [1] = target: T1, human Protein S (human, UniProt P07225 42-676); experiment: Biacore (SPR), Protein S immobilized, 37 °C
T1 construct: Called 'full length Protein S' / 'human full-length Protein S'; It was coated on plates (ELISA), Eu-labeled (LANCE) or immobilized on a chip (Biacore); also called PS; full length Protein S
T1 sequence: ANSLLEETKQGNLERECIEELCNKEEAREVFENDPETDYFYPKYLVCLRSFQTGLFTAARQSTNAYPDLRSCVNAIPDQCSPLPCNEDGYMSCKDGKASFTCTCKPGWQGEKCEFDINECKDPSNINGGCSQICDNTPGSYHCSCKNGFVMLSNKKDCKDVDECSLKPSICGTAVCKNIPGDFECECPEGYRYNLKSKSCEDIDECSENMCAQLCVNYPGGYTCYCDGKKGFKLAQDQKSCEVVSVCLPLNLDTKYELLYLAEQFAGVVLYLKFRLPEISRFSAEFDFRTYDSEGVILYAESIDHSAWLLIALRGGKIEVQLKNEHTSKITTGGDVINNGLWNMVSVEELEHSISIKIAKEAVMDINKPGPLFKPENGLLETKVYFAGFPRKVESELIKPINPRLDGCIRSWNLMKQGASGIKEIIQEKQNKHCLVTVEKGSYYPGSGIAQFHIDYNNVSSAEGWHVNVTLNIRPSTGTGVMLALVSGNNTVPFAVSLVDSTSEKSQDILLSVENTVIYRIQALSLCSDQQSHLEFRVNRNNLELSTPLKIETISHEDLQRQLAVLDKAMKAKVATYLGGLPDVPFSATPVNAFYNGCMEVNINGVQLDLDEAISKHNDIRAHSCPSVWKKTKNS
Procedure: (§1) Protein S affinity also was determined via Biacore (Biacore 3000 or Biacore T200) using human full-length Protein S and human GAS6. Briefly, 1000 RU of Protein S or GAS6 were immobilized on a CMS chip. In order to probe the kinetics of Protein S binding peptides to Protein S, the peptides were injected at various concentrations in a HBS-buffer containing 3 mM CaCl₂ and 1% DMSO to the flow cell and allowed to interact with the immobilized proteins on the sensor chip. The chip could be regenerated with 4 M MgCl₂ in HBS-buffer. Sensorgrams were fitted to a Langmuir binding model for the determination of kₒₙ and koff and the calculation of KD. Peptides were tested on their specificity to Protein S with peptide binding studies on the anti-target GAS6.

human GAS6 = target: T2, human GAS6 (human, UniProt Q14393 49-678, limits assumed); experiment: Biacore (SPR), GAS6 immobilized on the chip; sensorgrams reviewed visually
T2 construct: Immobilized on the Biacore chip; also called protein encoded by the Growth Arrest Specific-6 gene; anti-target
T2 sequence (looked up): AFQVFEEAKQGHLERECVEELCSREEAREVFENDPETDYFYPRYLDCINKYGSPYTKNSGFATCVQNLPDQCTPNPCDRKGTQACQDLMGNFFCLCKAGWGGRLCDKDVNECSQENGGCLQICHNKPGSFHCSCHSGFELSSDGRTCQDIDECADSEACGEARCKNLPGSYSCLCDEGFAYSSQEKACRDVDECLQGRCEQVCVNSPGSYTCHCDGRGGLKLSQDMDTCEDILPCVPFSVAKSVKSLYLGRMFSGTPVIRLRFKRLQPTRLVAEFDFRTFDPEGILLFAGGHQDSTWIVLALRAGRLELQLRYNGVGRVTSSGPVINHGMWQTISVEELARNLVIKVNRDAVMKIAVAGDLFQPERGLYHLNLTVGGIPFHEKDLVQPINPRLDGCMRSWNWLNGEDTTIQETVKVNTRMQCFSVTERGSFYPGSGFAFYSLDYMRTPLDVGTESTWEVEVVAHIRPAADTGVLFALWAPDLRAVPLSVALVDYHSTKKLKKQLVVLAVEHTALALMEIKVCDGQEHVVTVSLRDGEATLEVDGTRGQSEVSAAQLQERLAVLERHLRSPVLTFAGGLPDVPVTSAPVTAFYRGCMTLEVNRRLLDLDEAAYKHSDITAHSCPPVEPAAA
Procedure: as §1
Interactions with the anti-target GAS6 were measured via Biacore (surface plasmon resonance) (see Example 2). The maximum signal from the interaction of the peptides with human GAS6 was much lower than the signals obtained with Protein S as interaction partner. Kinetic analysis of the low GAS6 binding signals was error prone, and sensorgrams were reviewed visually to estimate anti-target binding. […]

human Protein S [2] = target: T1, human Protein S; experiment: competition ELISA; Protein S coated; competitor biotinylated tracer JBS0684
Procedure: The competition (IC50) ELISA was performed using biotinylated tracer peptide JBS0684 to compete for Protein S-binding with candidate peptides. Peptides that compete with the tracer bind the same region of Protein S as the tracer (and each other). Ninety-six well PolySorp plates (Nunc) were coated with 3 μg/mL Protein S in coating buffer (15 mM Na₂CO₃, 35 mM NaHCO₃, pH 9.6) over night. […] Plates were then washed three times with HNaT. JBS0684 was applied at a concentration corresponding to the EC90 value determined in the binding ELISA. A competitor stock solution of peptide (10 mM) was diluted 1/33.3 in HNaT without HSA, and a serial 1/3 dilution was prepared with HNaT with 3% DMSO. The dilution was further diluted with the biotinylated tracer peptide in a ratio of 1:6 (20 μl competitor dilution and 100 μl tracer peptide). The mixture of competitor and tracer peptide was applied to the Protein S-coated microtiter plate and incubated for 1.5 hours. The plates were washed three times with HNaT. Peptide-Protein S binding was detected by applying HRP-conjugated streptavidin to the microtiter plate, incubating the mixture for one hour, washing the plate three times with HNaT, applying TMB (3,3′5,5′-Tetramethylbenzidin), and detecting the subsequent chromogenic conversion of TMB by HRP. IC50 measurements of peptides are provided herein (see, e.g., Table 3).

human Protein S [3] = target: T1, human Protein S; experiment: LANCE TR-FRET competition; Protein S 2 nM, competitor tracer JBS0684 60 nM; Tecan F500 reader
Procedure: Peptides also were characterized in a competition, homogenous europium-based TR-FRET assay (LANCE IC50 assay) using JBS0684 as a tracer (i.e., competitor for Protein S binding). […] The final volume was 50 μl/well. […] Binding of tracer peptides to soluble europium-labeled Protein S was detected by Streptavidin labeled with an acceptor fluorophor (ULight™). Inhibition of tracer-binding to Protein S by a non-biotinylated peptide results in a decrease of TR-FRET between the Eu-labeled Protein S and ULight™-labeled Streptavidin. IC50 values were obtained from peptide titration curves at constant tracer concentration using non-linear regression of the fluorescence emission signals at 665 nm.

- Kd (human Protein S [1]): 3.8 nM
- koff (human Protein S [1]): 0.00431 s⁻¹
- kon (human Protein S [1]): 1.14e+06 M⁻¹ s⁻¹
- binding result (human GAS6): no binding (tested: 1 µM)
- IC50 (human Protein S [2]): 2.5 nM
- IC50 (human Protein S [3]): ~10 nM
Binder: Ac-TGLVSAGWYDYNFDHYREFT-NH2 (also called parent peptide JBS2572) [JBS2572]
